Measurements as given in US20250018037A1 (SEOUL NATIONAL UNIVERSITY R AND DB FOUNDATION, published 2025).
No end group written: not given here.

Columns and labels:
[1] = biological target: T1, Biotin conjugated 6×His peptide (also: biotin conjugated, site not given here); experiment: SPR (Biacore 8K): biotin 6×His peptide captured on immobilized streptavidin, scFv injected in 2-fold dilutions (6 curves)
T1 construct: also called histidine hexamer peptide
T1 peptide: HHHHHH
Source text: (§1) Since the murine anti-His antibody had decreased binding affinity against 6×His peptide after humanization, affinity maturation was further performed to increase it and chicken anti-CD40 antibody (2B1) was only humanized. Serial dilution antibodies at 6 concentrations were used to characterize the kinetics of antibody-antigen binding by SPR. […] So, there was not affinity loss against their antigen after humanization (FIG. 22B).
(§2) A Biacore 8K SPR system (Cytiva) equipped with CM5 sensor chip (Cytiva) was used to generate binding kinetic rate and affinity constants. To prepare the capture surfaces for anti-His antibodies, streptavidin was immobilized, followed by biotin conjugated 6×His peptide was captured. The antibodies were 2-fold serial diluted with 1×PBS, then injected at a flow rate of 30 μL/min for 3 minutes, allowing 10 minutes dissociation phase. The surface was regenerated using 10 mM glycine, pH 1.5. The kinetics were analyzed using Biacore 8K evaluation software, version 1.0 (Cytiva). In case of anti-CD40 antibodies, anti-human Fc IgG (Jackson ImmunoResearch) was immobilized, and then CD40-hFc protein (Acro Biosystems, #CD0-H5253) was captured. The antibodies were 2-fold serial diluted with HBS-EP+ buffer (10 mm HEPES, 150 mm sodium chloride, 3 mm EDTA, 0.05% Polysorbate 20), then injected at a flow rate of 30 μL/min for 4 minutes, allowing >15 minutes dissociation phase.

[2] = biological target: T1, Biotin conjugated 6×His peptide; experiment: SPR, Biacore 8K, CM5 chip; biotin 6×His peptide captured on streptavidin, scFv injected in 2-fold dilutions
Source text: as §1, §2

[3] = biological target: T1, Biotin conjugated 6×His peptide; experiment: SPR, Biacore 8K; reference is the parental murine anti-His antibody
Source text: as §1, §2

B1: Humanized and affinity maturated anti-His scFv (hu3D5M) (scFv)
scFv: DIVMTQSPLSLPVTPGEPASISCRSSQSIVHSNRNTYLEWYLQKPGQSPQLLIYKVSNRFSGVPDRFSGSGSGTDFTLKISRVEAEDVGVYYCFQGSHVPFTFGQGTKLEIKRGGGGSGGGGSGGGGSGGGGSQVQLVQSGAEVKKPGASVKVSCKASGYTFTDYYMNWVRQAPGQGLEWMGDINPNHGGTYYNHKFKGRVTMTVDTSTSTAYMELRSLRSDDTAVYYCESQSGAYWGQGTTVTVSS
notes: also called humanized anti-His
Binder B1 has a koff [1] of 0.00094 s⁻¹, a kon [1] of 437000 M⁻¹ s⁻¹ and a Kd [2] of 2.15 nM. For the same binder, the “fold higher affinity than parental antibody” value [3] was 5.8 fold.
